Laboratory results taken from US20240376180A1 (DEUTSCHES ZENTRUM FUR NEURODEGENERATIVE ERKRANKUNGEN E V …, published 2024).

T1: Fc fusion protein of the RBD-SD1 region of HCoV-OC43 (HCoV-OC43, UniProt P36334 318-675)
T1 construct: domain: RBD-SD1 region
T1 sequence: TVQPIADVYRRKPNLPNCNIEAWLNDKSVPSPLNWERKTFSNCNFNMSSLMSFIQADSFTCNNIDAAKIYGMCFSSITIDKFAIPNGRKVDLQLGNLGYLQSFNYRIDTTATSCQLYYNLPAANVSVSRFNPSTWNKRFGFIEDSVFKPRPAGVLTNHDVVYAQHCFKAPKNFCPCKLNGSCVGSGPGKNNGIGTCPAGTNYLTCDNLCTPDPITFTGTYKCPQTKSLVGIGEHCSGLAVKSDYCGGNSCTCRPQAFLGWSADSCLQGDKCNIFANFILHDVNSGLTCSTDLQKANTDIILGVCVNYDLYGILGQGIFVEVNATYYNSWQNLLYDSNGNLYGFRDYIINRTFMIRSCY

T2: Fc fusion protein of the RBD-SD1 region of HCoV-HKU1 (HCoV-HKU1, UniProt Q5MQD0 310-677)
T2 construct: domain: RBD-SD1 region
T2 sequence: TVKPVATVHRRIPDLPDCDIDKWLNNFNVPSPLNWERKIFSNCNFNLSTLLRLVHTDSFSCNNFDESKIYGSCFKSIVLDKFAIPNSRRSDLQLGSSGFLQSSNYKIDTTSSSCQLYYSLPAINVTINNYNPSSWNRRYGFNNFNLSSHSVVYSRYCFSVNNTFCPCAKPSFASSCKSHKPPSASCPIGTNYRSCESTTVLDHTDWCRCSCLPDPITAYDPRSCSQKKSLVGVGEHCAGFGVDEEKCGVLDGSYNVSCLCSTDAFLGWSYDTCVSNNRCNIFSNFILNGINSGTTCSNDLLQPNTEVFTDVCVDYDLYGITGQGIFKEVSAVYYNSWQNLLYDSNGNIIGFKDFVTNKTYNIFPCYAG

T3: Fc fusion protein of the RBD-SD1 region of MERS-CoV (MERS-CoV, UniProt K9N5Q8 367-655)
T3 sequence: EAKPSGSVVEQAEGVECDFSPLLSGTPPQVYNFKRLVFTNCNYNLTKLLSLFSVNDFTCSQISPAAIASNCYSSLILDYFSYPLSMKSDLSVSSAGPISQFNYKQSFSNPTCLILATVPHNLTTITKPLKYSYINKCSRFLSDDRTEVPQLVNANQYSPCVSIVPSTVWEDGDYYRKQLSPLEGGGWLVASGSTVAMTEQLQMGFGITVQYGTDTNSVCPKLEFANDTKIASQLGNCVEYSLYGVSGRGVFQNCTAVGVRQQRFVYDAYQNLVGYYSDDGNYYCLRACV


Legend:
[1] = molecular target: T4, Spike protein of authentic SARS-CoV-2 (Munich isolate 984) (SARS-CoV-2, UniProt P0DTC2 14-1273); assay: cell-based or functional assay
[2] = molecular target: T1, Fc fusion protein of the RBD-SD1 region …; assay: ELISA on captured RBD-SD1-Fc
[3] = molecular target: T2, Fc fusion protein of the RBD-SD1 region …; assay: ELISA on captured RBD-SD1-Fc
[4] = molecular target: Fc fusion protein of the RBD-SD1 region of SARS-CoV (SARS-CoV, UniProt P59594 306-577); assay: ELISA on captured RBD-SD1-Fc
[5] = molecular target: T3, Fc fusion protein of the RBD-SD1 region …; assay: ELISA on captured RBD-SD1-Fc
[6] = molecular target: T4, Spike protein of authentic SARS-CoV-2 …; assay: cell-based or functional assay; set-up: IC90 Neutralizing Assay: unit not given beside the values
[7] = molecular target: SARS-CoV-2 S protein-RBD-mFc (SARS-CoV-2, UniProt P0DTC2 319-537)
beta-2 microglobulin = beta-2 microglobulin (Homo sapiens (Human), UniProt P61769 21-119); assay: routine laboratory ELISA
Sequence of beta-2 microglobulin (P61769 21-119 limits assumed): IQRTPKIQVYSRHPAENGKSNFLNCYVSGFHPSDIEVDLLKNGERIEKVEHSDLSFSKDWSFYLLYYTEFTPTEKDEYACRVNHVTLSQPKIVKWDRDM

Binder | IC50 (PRNT, authentic SARS-CoV-2) [1] [µg/mL] | binding result [2] | binding result [3] | binding result [4] | binding result [5] | IC50 Neutralizing Assay [6] | Kd [7] [nM] | binding result (beta-2 microglobulin) | IC90 Neutralizing Assay [6]
HL CV07-222 (antibody, V domains shown) VH: QVQLVQSGAEVKKPGASVKVSCKASGYTFTDYYVHWVRQAPGQGLEWMGWINPISGGTNYAQKFQGRVTMTRDTSISTAYMELSRLRSDDTAVYYCARGPYYYDSSGSLGAFDIWGQGTMVTVSS VL: QSALTQPASVSGSPGQSITISCTGTSSDVGSYNLVSWYQQHPGKAPKLMIYEGSKRPSGVSNRFSGSKSGNTASLTISGLQAEDEAHYYCCSYAGGSTSYVFGTGTKVTVLG | 0.0078 | no binding (tested: 1 µg/ml) | no binding (tested: 1 µg/ml) | no binding (tested: 1 µg/ml) | no binding (tested: 1 µg/ml) | < 0.05 µg/mL | 0.00697 | no binding (tested: 50 µg/ml) | 
HK CVX1-126 (antibody, V domains shown) VH: EVQLVESGGGLVQPGGSLRLSCAASGLTVSSNYMSWVRQAPGKGLEWVSVIYSGGSTYYADSVKGRFTISRHNSKNTLYLQMNSVRAEDTAVYYCARDLSEGGMDVWGQGTTVTVSS VL: DIQMTQSPSSVSASVGDRVTITCRASQGISSWLAWYQQKPGKAPKLLIYAASTLQSGVPSRFSGSGSGTDFTLTISSLQPEDFATYYCQQANGFPPLFGGGTKVEIKR | 0.0717 | no binding (tested: 1 µg/ml) | no binding (tested: 1 µg/ml) | no binding (tested: 1 µg/ml) | no binding (tested: 1 µg/ml) |  | 0.243 | no binding (tested: 50 µg/ml) | 
HK CVX2-106 (antibody, V domains shown) VH: QVQLVQSGAEVKKPGSSVKVSCKASGGTFSSYAISWVRQAPGQGLEWMGGIIPIFGTANYAQKFQGRVTITADESTSTAYMELSSLRSEDTAVYYCATRKETTVTTSLVYGMDVWGQGTTVTVSS VL: not shown | 0.0176 | no binding (tested: 1 µg/ml) | no binding (tested: 1 µg/ml) | no binding (tested: 1 µg/ml) | no binding (tested: 1 µg/ml) | ~0.5 µg/mL |  | no binding (tested: 50 µg/ml) | 
HL CV07-262 (antibody, V domains shown) VH: QVQLVQSGAEVKKPGASVKVSCKASGYTFTGYYMHWVRQAPGQGLEWMGWINPNSGGTNYAQTFQGRVTMTRDTSITTTYMELSRLRSDDTAVYYCARVGWYDFGTPGDYYYYYGMDVWGQGTTVTVSS VL: QSALTQPASVSGSPGQSITISCTGTSSDVGSYNLVSWYQQHPGKAPKLMIYEGSKRPSGVSNRFSGSKSGNTASLTISGLQAEDEADYFCCSYAGTSTFVFGTGTKVTVLG | 0.0071 | no binding (tested: 1 µg/ml) | no binding (tested: 1 µg/ml) | no binding (tested: 1 µg/ml) | no binding (tested: 1 µg/ml) | < 0.05 µg/mL | 0.079 | no binding (tested: 50 µg/ml) | ~500
HL CV07-267 (antibody, V domains shown) VH: not shown VL: QSALTQPASVSGSPGQSITISCTGTSSDVGSYNLVSWYQQHPGKAPKLMIYEVSKRPSGVSNRFSGSKSGNTASLTISGLQAEDEADYYCCSYAGSSSWVFGGGTKLTVLG |  |  |  |  |  | ~500 |  |  | 
HL CV07-255 (antibody, V domains shown) VH: not shown VL: QSALTQPASVSGSPGQSITISCTRTSSDVESYNLVSWYQQHPGKAPKLMIYEVSKRPSGISNRFSGSKSGNTASLTISGLQAEDEADYYCCSYAGHSTWVFGGGTELTVLG | 0.0145 | no binding (tested: 1 µg/ml) | no binding (tested: 1 µg/ml) | no binding (tested: 1 µg/ml) | no binding (tested: 1 µg/ml) | ~0.05 µg/mL |  | no binding (tested: 50 µg/ml) | 
HK CV38-113 (antibody, V domains shown) VH: EVQLVESGGGLVQPGGSLRLSCAASGFTVSSNYMSWVRQAPGKGLEWVSVIYSGGSTYYADSVKGRFTISRHNSKNTLYLQMNSLRAEDTAVYFCARGGRLADAAGDYWGQGTLVTVSS VL: not shown | 0.0208 | no binding (tested: 1 µg/ml) | no binding (tested: 1 µg/ml) | no binding (tested: 1 µg/ml) | no binding (tested: 1 µg/ml) | ~0.05 µg/mL | 0.134 | no binding (tested: 50 µg/ml) | 
HK CV38-139 (antibody, V domains shown) VH: EVQLVESGGGLVQPGGSLRLSCAASGFTVSSNYMSWVRQAPGKGLEWVSVFYSGGSTFYADSVKGRFTISRDNSKNTLYLQMNSLRAEDTAVYYCARGHYDLFDYWGQGTLVTVSS VL: DIQLTQSPSFLSASVGDRVTITCRASQGISSYLAWYQQKPGKAPKLLIYAASTLQSGVPSRFSGSGSGTEFTLTISSLQPEDFATYYCQQLNSYPPGTFGPGTKVDIKR | 0.0732 | no binding (tested: 1 µg/ml) | no binding (tested: 1 µg/ml) | no binding (tested: 1 µg/ml) | no binding (tested: 1 µg/ml) |  | 0.277 | no binding (tested: 50 µg/ml) | 
HK CV07-209 (antibody, V domains shown) VH: QVQLVESGGGLVKPGGSLRLSCAASGFTFSDYYMSWIRQAPGKGLEWVSYISSSVSTIYYADSVKGRFTISRDNAKNSLYLQMNSLRAEDTAVYYCARDGVIPPRFDYWGQGTLVTVSS VL: not shown | 0.0031 | no binding (tested: 1 µg/ml) | no binding (tested: 1 µg/ml) | no binding (tested: 1 µg/ml) | no binding (tested: 1 µg/ml) | < 0.05 µg/mL | 0.006 | no binding (tested: 50 µg/ml) | 
HL CV07-270 (antibody, V domains shown) VH: QVQLVESGGGLVKPGGSLRLSCAASGFTFSDYYMTWIRQAPGKGLEWVSYISSSGSTIYYADSVKGRFTISRDNAKNSLYLQMNSLRAEDTAVYYCARARGSSGWYRIGTRWGNWFDPWGQGTLVTVSS VL: QSALTQPASVSGSPGQSITISCTGTSSDVGGYNYVSWYQQHPGKAPKLMIYEVSNRPSGVSNRFSGSKSGNTASLTISGLQAEDEADYYCSSYTSSSNVVFGGGTMLTVLG | 0.0823 | no binding (tested: 1 µg/ml) | no binding (tested: 1 µg/ml) | no binding (tested: 1 µg/ml) | no binding (tested: 1 µg/ml) |  |  | no binding (tested: 50 µg/ml) | ~500
HK CV38-221 (antibody, V domains shown) VH: EVQLVESGGGLVQPGGSLRLSCAASGITVSSNYMIWVRQAPGKGLEWVSVIYSGGSTYYADSVKGRFTISRDNSKNTLYLQMNSLRAEDTAVYYCARGFGDYYFDYWGQGTLVTVSS VL: EIVLTQSPGTLSLSPGERATLSCRASQSVSSSYFAWYQQKPGQAPRLLIYGASSRATGIPDRFSGSGSGTDFTLTISRLEPEDFAVYYCQQLYTFGQGTKLEIKR | 0.173 | no binding (tested: 1 µg/ml) | no binding (tested: 1 µg/ml) | no binding (tested: 1 µg/ml) | no binding (tested: 1 µg/ml) |  | 0.499 | no binding (tested: 50 µg/ml) | 
